# B1: Hairpin Ribozyme (parent)
# chain: GUCCUCUUUCACGUGCGCGUGAAAGAGAGAAGUGAACCAGAGAAACACACGUUGUGGUAUAUUACCUGGUA
# Variants of: B1
# Test: self-cleavage, relative activity (ratio to wild type); higher = more cleavage; co-transcriptional
row,Variant,self-cleavage
1,A23C U55G,0.359
2,A23C C66G,0.166
3,A22G U70A,0.81
4,A22G U70G,0.658
5,A23G G51U,1.01
6,A24C U58G,0.761
7,A24C U58A,0.265
8,A22U G42C,0.325
9,A22G U63A,0.22
10,A22G U63G,0.171
11,A23U A31C,0.147
12,A23U A31G,0.805
13,A24G A36U,0.397
14,A24U U62C,0.293
15,A24U U62A,0.2
16,A23C C37G,0.159
17,A24U G56A,0.212
18,A22G U53A,0.926
19,A24C U33G,0.152
20,A22U U52C,0.631
21,A22U U52G,0.883
22,A22U A31C,0.0317
23,A23C A26C,0.507
24,A24G C38U,0.31

row,Variant,self-cleavage
1,A22U U63A,0.155
2,G25A A28G,0.849
3,A23G C37U,0.466
4,A23C G69A,0.379
5,A23C G69C,0.244
6,A24U G57A,0.196
7,A23U G69C,0.325
8,A23U G69A,0.335
9,A22U C66U,0.482
10,A23C C48G,0.0948
11,A23C C48U,0.202
12,A23C C48A,0.0725
13,A24G C48A,0.191
14,A22U A30C,0.223
15,A23C U52A,0.875
16,A22U G56A,0.147
17,A22U G69A,0.42
18,A23U G34U,1.34
19,A23G A39G,0.353
20,A23G A39U,0.252
21,A23G A39C,0.408
22,A23U G57C,0.211
23,A23U G57U,0.307
24,A23U U62C,0.247

row,Variant,self-cleavage
1,A23U U62G,0.171
2,A23C U70C,1.06
3,A23U A64C,0.221
4,A23U A64U,0.178
5,A23U A64G,0.474
6,A23G C50U,0.43
7,A23U C46G,0.0441
8,A23U C46A,0.224
9,A23C A41C,0.948
10,A23C A41U,0.911
11,A23C U63G,0.273
12,A23C U63A,0.238
13,A24U A39U,0.38
14,A23G C38G,0.186
15,A24U G27U,0.199
16,A24C A28G,1.13
17,A24C A28U,0.592
18,G25A A26G,0.298
19,G25A A26C,0.124
20,A24U A43G,0.159
21,A24C A30U,0.146
22,A24C A30C,0.242
23,A22G U55C,0.294
24,A22U C38G,0.184

row,Variant,self-cleavage
1,A24G A41U,1.05
2,A23U G27C,0.148
3,A24U A44C,0.252
4,A24U A44G,0.119
5,A24C U55G,0.266
6,A24C G34A,0.895
7,A23U U55G,0.448
8,A23U U55A,0.255
9,A24C U62A,0.3
10,A24C U62C,0.297
11,A23U A59C,0.0742
12,A23U A59U,0.189
13,A23G U58C,0.847
14,A24U G25U,0.682
15,A24G U53G,0.591
16,A23U A35C,0.848
17,A23U A35G,0.967
18,A24G A59C,0.213
19,A24G A59U,0.153
20,A23C G56U,0.1
21,A24C A35C,0.778
22,A24G U60G,0.661
23,A24G U60A,0.861
24,A23C A39U,0.269

row,Variant,self-cleavage
1,A22U C37G,0.339
2,A22U C46U,0.117
3,A22U U67G,0.295
4,A24C G51U,0.878
5,A24U U63A,0.237
6,A24U U63G,0.146
7,A24C A49G,0.535
8,A23U A30U,0.0692
9,A23U C65G,0.159
10,A24G U52C,0.762
11,A24G U52G,0.687
12,A24G U67C,0.222
13,A24G U67G,0.263
14,A23C G57C,0.192
15,A23C G57U,0.29
16,A24G C37U,0.294
17,A24G C37G,0.359
18,A24G C37A,0.345
19,A23G A31U,0.0848
20,A22U G32A,0.122
21,A22U A43U,0.136
22,A22U A43C,0.178
23,A23U C38U,0.312
24,A24U C37U,0.734

row,Variant,self-cleavage
1,A24U C37G,0.292
2,A24U U67A,0.0716
3,A24U U60G,0.531
4,A24U U60A,0.57
5,A24C A61C,0.139
6,A24C A61G,0.156
7,A24C A61U,0.189
8,A23U C50U,0.376
9,A23U A36C,0.596
10,A23G C65G,0.392
11,A24G G25A,0.591
12,A24G G25C,0.668
13,A24U G29C,0.115
14,A23G A26U,0.842
15,A24C C38A,0.228
16,A23C C46A,0.131
17,A23C A43C,0.146
18,A23C A43G,0.0715
19,A24C A43G,0.157
20,A24C A43C,0.0956
21,A23G A41G,0.678
22,A23G A43U,0.184
23,A23G A43G,0.0591
24,A24U G54U,0.476

row,Variant,self-cleavage
1,A24C A45U,0.0791
2,A24G U58G,0.517
3,A24G U58C,0.804
4,A24G U58A,0.628
5,A23C A28U,0.501
6,A24U G42A,0.257
7,A23G U60A,0.694
8,A22U U53G,0.817
9,A23C U62A,0.229
10,A22G U58G,0.528
11,A22G U58C,0.954
12,A23G A24U,0.651
13,A23G A24C,0.648
14,A24U C50U,0.307
15,A24U U33A,0.11
16,A24U U33G,0.135
17,A24G A39U,0.473
18,A23U A43C,0.141
19,A23U C48A,0.157
20,A23G U70A,0.741
21,A23C G51C,0.804
22,A23C G51A,0.83
23,A23C A45C,0.0875

# — the RNAGym collection of RNA variant scans (doi:10.7554/elife.80360)
